Reference: patent US12723100

Columns and labels:
[1] = molecular target: full-length human Nectin-4 on cells (human) (UniProt Q96NY8); experiment: cell-based or functional assay
[2] = molecular target: human recombinant Nectin-4 protein (extracellular domain) (human) (UniProt Q96NY8); experiment: ELISA, recombinant human Nectin-4 coated on plate
[3] = molecular target: full-length human Nectin-4 on cells (human) (UniProt Q96NY8); experiment: flow cytometry, SKBR3 cells (endogenous Nectin-4)
[4] = molecular target: full-length human Nectin-4 on cells (human) (UniProt Q96NY8); experiment: flow cytometry, CHO-Nectin-4 cells
[5] = molecular target: full-length human Nectin-4 on cells (human) (UniProt Q96NY8); experiment: flow cytometry competition on CHO-Nectin-4 cells; competitor biotinylated human Nectin-1-His

- EC50 [2]: 0.34 nM
- EC50 [3]: 0.07 nM
- EC50 [4]: 0.04 nM
- EC50 [5]: 0.16 nM
B1: Positive Control 1 (PC1), in-house Nectin-4-specific antibody based on Enfortumab (AGS-22 M6) (antibody, INN chains, looked up, V domains shown)
VH: EVQLVESGGGLVQPGGSLRLSCAASGFTFSSYNMNWVRQAPGKGLEWVSYISSSSSTIYYADSVKGRFTISRDNAKNSLSLQMNSLRDEDTAVYYCARAYYYGMDVWGQGTTVTVSS
VL: DIQMTQSPSSVSASVGDRVTITCRASQGISGWLAWYQQKPGKAPKFLIYAASTLQSGVPSRFSGSGSGTDFTLTISSLQPEDFATYYCQQANSFPPTFGGGTKVEIKR
- Endocytosis EC50 (cell killing with MMAF-conjugated Fab anti-hFc), Nectin-4-CHO cells [1]: 0.33 nM
- Endocytosis EC50 (cell killing with MMAF-conjugated Fab anti-hFc), SKBR3 cells [1]: 0.39 nM
